Laboratory results: patent US12195506B2, “Immunotherapy with A*01 restricted peptides and combination of peptides against cancers and related methods” (Immatics Biotechnologies GmbH, priority 2018, dated 2025)

Molecular target: HLA-A*01:01 (Homo sapiens, UniProt P04439, A114D/A174V/A182V/D101N/D185E/E176A/E190D/L180R/Q94H/R68K/S129P/T187R/V100A/V91M/W191G)
Test: MHC binding assay: UV-ligand exchange, ELISA of stabilized MHC complexes (peptide exchange yield)
Conditions: binding to HLA-A*01:01, UV-ligand exchange
From the text: Candidate peptides for T cell based therapies according to the present invention were further tested for their MHC binding capacity (affinity). The individual peptide-MHC complexes were produced by UV-ligand exchange, where a UV-sensitive peptide is cleaved upon UV-irradiation and exchanged with the peptide of interest as analyzed. Only peptide candidates that can effectively bind and stabilize the peptide-receptive MHC molecules prevent dissociation of the MHC complexes. To determine the yield of the exchange reaction, an ELISA was performed based on the detection of the light chain (β2m) of stabilized MHC complexes. The assay was performed as generally described in Rodenko et al. (Rodenko et al., 2006)
96 well MAXISorp plates (NUNC) were coated over night with 2 ug/ml streptavidin in PBS at room temperature, washed 4× and blocked for 1 h at 37° C. in 2% BSA containing blocking buffer. Refolded HLA-A*02:01/MLA-001 monomers served as standards, covering the range of 15-500 ng/ml. Peptide-MHC monomers of the UV-exchange reaction were diluted 100-fold in blocking buffer. Samples were incubated for 1 h at 37° C., washed four times, incubated with 2 ug/ml HRP conjugated anti-β2m for 1 h at 37° C., washed again and detected with TMB solution that is stopped with […]. Absorption was measured at 450 nm.

| Substance | Peptide exchange |
| --- | --- |
| 106 (EVVEGKEWGSFY; listed as Homo sapiens) [compound 106] | +++ (>50 = +++) |
| 107 (TTENSGNYY; listed as Homo sapiens) [compound 107] | ++++ (>75% = ++++) |
| 108 (NSNLKFLEV; listed as Homo sapiens) [compound 108] | ++ (>20% = ++) |
| 109 (ISEDKSISF; listed as Homo sapiens) [compound 109] | ++ (>20% = ++) |
| 110 (IGDKVDAVY; listed as Homo sapiens) [compound 110] | ++ (>20% = ++) |
| 111 (TPIPFDKILY; listed as Homo sapiens) [compound 111] | ++ (>20% = ++) |
| 112 (KASSVSAEDGY; listed as Homo sapiens) [compound 112] | ++ (>20% = ++) |
| 113 (ASCRSSAEY; listed as Homo sapiens) [compound 113] | ++++ (>75% = ++++) |
| 114 (AVAAAAGASLY; listed as Homo sapiens) [compound 114] | ++ (>20% = ++) |
| 115 (NEIDIHSIYFY; listed as Homo sapiens) [compound 115] | ++ (>20% = ++) |
| 116 (RSDIGEFEW; listed as Homo sapiens) [compound 116] | ++ (>20% = ++) |
| 117 (SPAKQFNIY; listed as Homo sapiens) [compound 117] | +++ (>50 = +++) |
| 118 (LTWAHSAKY; listed as Homo sapiens) [compound 118] | +++ (>50 = +++) |
| 119 (TVFDENLSRY; listed as Homo sapiens) [compound 119] | ++ (>20% = ++) |
| 121 (SADEAHGLL; listed as Homo sapiens) [compound 121] | ++ (>20% = ++) |
| 122 (ISEAPLTEV; listed as Homo sapiens) [compound 122] | ++ (>20% = ++) |
| 123 (LLKAKDILY; listed as Homo sapiens) [compound 123] | ++ (>20% = ++) |
| 124 (FLKVTGYDKDDY; listed as Homo sapiens) [compound 124] | ++ (>20% = ++) |
| 125 (FQYELRELY; listed as Homo sapiens) [compound 125] | ++++ (>75% = ++++) |
| 126 (TTDPKKFQY; listed as Homo sapiens) [compound 126] | ++++ (>75% = ++++) |
| 127 (VPFNLITEY; listed as Homo sapiens) [compound 127] | + (>10% =+) |
| 128 (YTEFVDATFTK; listed as Homo sapiens) [compound 128] | ++++ (>75% = ++++) |
| 129 (STIDFRAGF; listed as Homo sapiens) [compound 129] | ++ (>20% = ++) |
| 130 (YIGLKGLYF; listed as Homo sapiens) [compound 130] | ++ (>20% = ++) |
| 131 (LEDGIEQSAY; listed as Homo sapiens) [compound 131] | ++ (>20% = ++) |

| Substance | Peptide exchange |
| --- | --- |
| 132 (RTHIGYKVY; listed as Homo sapiens) [compound 132] | +++ (>50 = +++) |
| 133 (ITDVGPGNY; listed as Homo sapiens) [compound 133] | +++ (>50 = +++) |
| 134 (SAPSSSGSPLY; listed as Homo sapiens) [compound 134] | ++ (>20% = ++) |
| 135 (TFDKQIVLL; listed as Homo sapiens) [compound 135] | ++ (>20% = ++) |
| 136 (RRLNFSGFGY; listed as Homo sapiens) [compound 136] | +++ (>50 = +++) |
| 137 (EAYLERIGY; listed as Homo sapiens) [compound 137] | +++ (>50 = +++) |
| 138 (IPVHDSVGVTY; listed as Homo sapiens) [compound 138] | +++ (>50 = +++) |
| 139 (PVHDSVGVTY; listed as Homo sapiens) [compound 139] | ++ (>20% = ++) |
| 140 (SQHIFTVSY; listed as Homo sapiens) [compound 140] | ++ (>20% = ++) |
| 141 (DAVAPGREY; listed as Homo sapiens) [compound 141] | ++ (>20% = ++) |
| 142 (IEKFAVLY; listed as Homo sapiens) [compound 142] | +++ (>50 = +++) |
| 143 (HVSGQMLYF; listed as Homo sapiens) [compound 143] | ++ (>20% = ++) |
| 144 (RTIEGDFLW; listed as Homo sapiens) [compound 144] | ++ (>20% = ++) |
| 145 (LSDAVHVEF; listed as Homo sapiens) [compound 145] | +++ (>50 = +++) |
| 146 (LCATVCGTEQY; listed as Homo sapiens) [compound 146] | ++ (>20% = ++) |
| 147 (AQVQDTGRY; listed as Homo sapiens) [compound 147] | +++ (>50 = +++) |
| 148 (GTKQWVHARY; listed as Homo sapiens) [compound 148] | + (>10% =+) |
| 149 (PIMSSSQALY; listed as Homo sapiens) [compound 149] | ++ (>20% = ++) |
| 150 (FTTLSDLQTNMA; listed as Homo sapiens) [compound 150] | ++ (>20% = ++) |
| 151 (YEVDTKLLSL; listed as Homo sapiens) [compound 151] | ++ (>20% = ++) |
| 152 (YLEDRPLSQ; listed as Homo sapiens) [compound 152] | ++ (>20% = ++) |
| 153 (HSIEVFTHY; listed as Homo sapiens) [compound 153] | ++ (>20% = ++) |
| 154 (SIEVFTHY; listed as Homo sapiens) [compound 154] | +++ (>50 = +++) |
| 155 (HTMEVTVY; listed as Homo sapiens) [compound 155] | +++ (>50 = +++) |
| 156 (STALSILLL; listed as Homo sapiens) [compound 156] | ++ (>20% = ++) |

| Substance | Peptide exchange |
| --- | --- |
| 157 (GLIEVVTGY; listed as Homo sapiens) [compound 157] | ++++ (>75% = ++++) |
| 158 (EVTDRNMLAF; listed as Homo sapiens) [compound 158] | +++ (>50 = +++) |
| 159 (RQAPGPARDY; listed as Homo sapiens) [compound 159] | ++ (>20% = ++) |
| 160 (EVLGEEMYAY; listed as Homo sapiens) [compound 160] | ++ (>20% = ++) |
| 161 (EAAPDIMHY; listed as Homo sapiens) [compound 161] | ++ (>20% = ++) |
| 162 (IADNPQLSFY; listed as Homo sapiens) [compound 162] | ++++ (>75% = ++++) |
| 163 (KIRAEVLSHY; listed as Homo sapiens) [compound 163] | ++ (>20% = ++) |
| 164 (KLAGTVFQY; listed as Homo sapiens) [compound 164] | ++ (>20% = ++) |
| 165 (VSVYNSYPY; listed as Homo sapiens) [compound 165] | ++ (>20% = ++) |
| 166 (YHRICELLSDY; listed as Homo sapiens) [compound 166] | ++++ (>75% = ++++) |
| 167 (RAVQPGETY; listed as Homo sapiens) [compound 167] | +++ (>50 = +++) |
| 168 (VQPGETYTY; listed as Homo sapiens) [compound 168] | +++ (>50 = +++) |
| 169 (TVDNANILL; listed as Homo sapiens) [compound 169] | ++ (>20% = ++) |
| 170 (VQIAKGMNY; listed as Homo sapiens) [compound 170] | +++ (>50 = +++) |
| 171 (ITDFGLAKL; listed as Homo sapiens) [compound 171] | ++ (>20% = ++) |
| 172 (FSEPFHLIV; listed as Homo sapiens) [compound 172] | +++ (>50 = +++) |
| 173 (QSTTGVSHY; listed as Homo sapiens) [compound 173] | +++ (>50 = +++) |
| 174 (TSEVEGLAFVSY; listed as Homo sapiens) [compound 174] | +++ (>50 = +++) |
| 175 (GLEYEAPKLY; listed as Homo sapiens) [compound 175] | ++ (>20% = ++) |
| 176 (HTDLESPSAVY; listed as Homo sapiens) [compound 176] | +++ (>50 = +++) |
| 177 (LVDGKWQEF; listed as Homo sapiens) [compound 177] | ++ (>20% = ++) |
| 178 (TQRTSFQFY; listed as Homo sapiens) [compound 178] | ++ (>20% = ++) |
| 179 (SSTDFTFASW; listed as Homo sapiens) [compound 179] | + (>10% =+) |
| 180 (AQISDTGRY; listed as Homo sapiens) [compound 180] | ++ (>20% = ++) |
| 181 (SVTDLIGGKW; listed as Homo sapiens) [compound 181] | ++ (>20% = ++) |
